In article PMC4344510:
Like-named read-outs stand apart in the source and are kept apart here.

B1: Aus (FAM) (ssRNA)
RNA: AUAACUA
B2: Ads (FAM) (ssRNA)
RNA: AACUAAA
B3: OxyS 65-74 10-nt (ssRNA)
RNA: AAUAACUAAA
B4: Aus (ssRNA)
RNA: AUAACUA
B5: Ads (ssRNA)
RNA: AACUAAA
B6: A7 (FAM) (ssRNA)
RNA: AAAAAAA

Experiments:
Hfq WT [1] = biological target: T1, Hfq WT (Escherichia coli, UniProt P0A6X3 1-102); test: fluorescence polarization
Hfq N48A [2] = biological target: T2, Hfq N48A (Escherichia coli, UniProt P0A6X3 1-102, N48A); test: fluorescence polarization
Hfq N28A [3] = biological target: T3, Hfq N28A (Escherichia coli, UniProt P0A6X3 1-102, N28A); test: fluorescence polarization
Hfq F42S = Hfq F42S (Escherichia coli, UniProt P0A6X3 1-102, F42S); test: fluorescence polarization
Hfq N28A [4] = biological target: T3, Hfq N28A; test: fluorescence polarization; remark: listed apart in the source
Hfq WT [5] = biological target: T1, Hfq WT; test: fluorescence polarization; remark: listed apart in the source
Hfq65 R16A/R17A = Hfq65 R16A/R17A (Escherichia coli, UniProt P0A6X3 1-65, R16A;R17A); test: NMR
Hfq N28A [6] = biological target: T3, Hfq N28A; test: fluorescence polarization; remark: listed apart in the source
Hfq N48A [7] = biological target: T2, Hfq N48A; test: fluorescence polarization; remark: listed apart in the source

Binder | Kd (Hfq WT [1]) [nM] | Kd (Hfq N48A [2]) [nM] | binding result (Hfq F42S) | binding result (Hfq65 R16A/R17A) | other results
B1 | 22 | 16.8 | binds |  | binding signal (Hfq N28A [3]): ~6 fold weaker than WT
B2 |  | 92.8 | binds |  | binding result (Hfq N28A [4]): binds; Kd (Hfq WT [5]): 1490 nM
B3 | 13 |  |  |  | 
B4 |  |  |  | binds | 
B5 |  |  |  | binds | 
B6 |  |  |  |  | binding signal (Hfq N28A [6]): ~40 fold weaker than WT; binding signal (Hfq N48A [7]): ~27 fold weaker than WT
